From article PMC8723827 (Cell, 2022)

B1: Beta-55 mAb (IgG) (antibody, V domains shown)
VH: QVQLQESGPGLVKPSETLSLTCTVSGDSISSSRYYWGWIRQPPGKGLEWIGTFYYSGITYYNPSLKSRVTIFVDTSKNQFSLKLSSVTAADTAVYYCARPRPPDYYDNSGALLFDIWGQGTMVTVSS
VL: AIRMTQSPSTLSASVGDRVTIACRASQSISAWLAWYQQKPGKAPKLLIYKASSLESGVPSRFSGSGSGTEFTLTINSLQPDDFATYYCQQYISSSPWTFGQGTKVEIK
B2: EY6A mAb (IgG) (antibody, V domains shown)
VH: EVQLVESGGGVVQPGRSLRLSCAASAFTFSSYDMHWVRQAPGKGLEWVAVISYDGSNKYYADSVKGRFTISRDNSKNTLYLQMNSLRAEDTAVYYCAKDGGKLWVYYFDYWGQGTLVTVSS
VL: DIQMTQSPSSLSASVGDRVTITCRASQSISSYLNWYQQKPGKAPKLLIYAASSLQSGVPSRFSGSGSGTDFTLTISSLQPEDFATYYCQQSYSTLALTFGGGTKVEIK
B3: mAb 58 Fab (COVOX-58) (Fab, V domains shown)
VH: QVQLVESGGGLVQPGRSLRLSCAASGFTFDDYAMHWVRQPPGKGLEWVSGVSWNSGTIGYADSVKGRFIISRDNAKNSLYLQMNSLKAEDTALYYCAREVGGTFGVLISREGGLDYWGQGTLVTVSS
VL: SYELTQPPSVSVAPGQTARITCGGNTIGSKSVHWYQQRPGQAPVLVVYDDSDRPSGIPERFSGSNSGNTATLTISRVEAGDEADYYCQVWDSSSDRVVFGGGTKLTVL
B4: mAb 158 Fab (COVOX-158) (Fab, V domains shown)
VH: EVQLLESGGDLIQPGGSLRLSCAASGVTVSSNYMSWVRQAPGKGLEWVSIIYPGGSTFYADSVKGRFTISRDNSKNTLYLQMHSLRAEDTAVYYCARDLGSGDMDVWGKGTTVTVSS
VL: DIVMTQSPSFLSASVGDRVTITCRASQGISSYLAWYQQKPGKAPKLLIQAASTLQSGVPSRFSGSGSGTEFTLTISSLQPEDFATYYCQQLNSYRYTFGQGTKVEIK

Key:
[1] = target: T1, His-tagged SARS-CoV-2 RBD (early pandemic, Wuhan) (SARS-CoV-2, UniProt P0DTC2); test: SPR; settings: both partners purified
[2] = target: T1, His-tagged SARS-CoV-2 RBD (early …); test: crystal structure; settings: both partners purified

Binder	Kd [1]	binding result [2]
B1	0.177 nM	–
B2	7.8 nM	–
B3	–	binds
B4	–	binds
